The record followed here is EP4663199A1 (Strike Pharma AB, dated 2025).

For assay [1], the target named is peptide SEQ ID NO:230 (tag moiety …, GGS spacers, cargo peptide).
For assay [2], the target named is peptide SEQ ID NO:234 (tag moiety …, AAY spacers, cargo peptide).
For assay [3], the target named is peptide SEQ ID NO:228 (tag moiety …, AAY spacers, cargo peptide).
The target in assay [4] is peptide SEQ ID NO:243 (tag moiety …, GGS spacer, cargo peptide).
The target of assay [5] is peptide SEQ ID NO:240 (tag moiety …, no spacer, cargo peptide).
For assay [6], the target named is peptide SEQ ID NO:236 (tag moiety …, GGS spacers, cargo peptide).
Assay [7] addresses peptide SEQ ID NO:237 (tag moiety …, GGS spacer, cargo peptide).
In assay [8] the target is peptide SEQ ID NO:235 (tag moiety […], AAA spacers, cargo peptide).

B1: bispecific binding molecule comprising a first specific binding molecule (comprising SEQ ID NO:265 a (bispecific antibody)
VH: EVQLLESGGGLVQPGGSLRLSCAASGFTFSSYAMSWVRQAPGKGLEWVSGISGYSGSTYYADSVKGRFTISRDNSKNTLYLQMNSLRAEDTAVYYCARYYSYYGYYYFDYWGQGTLVTVSS
VL: DIQMTQSPSSLSASVGDRVTITCRASQSISSYLNWYQQKPGKAPKLLIYAASSLQSGVPSRFSGSGSGTDFTLTISSLQPEDFATYYCQQGYPYPFTFGQGTKLEIK
scFv: QVQLVQSGAEVKKPGASVKVSCKASGFNIKDFNIHWVRQAPGQGLEWIGRIDPESGDAEYVPKFQGRVTMTRDTSTSTVYMELSSLRSEDTAVYYCTTGSYDLDVEYWGQGTLVTVSSGGGGSGGGGSGGGGSGGGGSDIQMTQSPSSLSASVGDRVTITCHASQNINVWLSWYQQKPGKAPKLLIYKASTLHTGVPSRFSGSGSGTDFTLTISSLQPEDFATYYCQQGQSYPLTFGQGTKLEIK
B1: the Kd in assay [1] was 16 pM; in assay [2], 17 pM; in assay [3] it was 7.8 pM; in [4], 2.7 pM; in assay [5], 5.5 pM; in [6], 12 pM. In addition, the Kd in [7] was found to be 76 pM; in assay [8] it was 11 pM; in the assay with peptide it was 12 pM.

The term Kd denotes the free concentration of one partner at which half of the binding sites on the other are occupied at equilibrium, for simple one-to-one binding. Read a high Kd as a looser complex.
